The source of these data is PMC3931076, “Crystal Structures of Leukotriene C4 Synthase in Complex with Product Analogs” (The Journal of Biological Chemistry, 2013).

The series deals with the molecule itself. Description: crystal structure; sitting drop vapor diffusion at room temperature, 3.5 mg/ml protein with 1 mM GSH; 1.8-2.2 M NH4SO4, 0.2 M NaCl, 0.1 M sodium cacodylate pH 6.1-6.8; analog I soaked, analogs II and III co-crystallised; space group F23.

B1: Leukotriene C4 synthase (human, wild type) (enzyme)
chain: MKDEVALLAAVTLLGVLLQAYFSLQVISARRAFRVSPPLTTGPPEFERVYRAQVNCSEYFPLFLATLWVAGIFFHEGAAALCGLVYLFARLRYFQGYARSAQLRLAPLYASARALWLLVALAALGLLAHFLPAALRAALLGRLRTLLPWA
notes: Leukotriene C4 synthase, human, wild type; integral membrane protein in dodecyl maltoside; Expression and purification 'essentially as described (15)'; The trimer arises by crystal symmetry (space group F23); also called LTC4S; LTC4 synthase
What is called stoichiometry N is a count of units in the complex or per binding partner. Consider B1, for which the “stoichiometry N” value was 3.
